From patent US20240066100A1 (published 2024)
Changes are numbered by the printed parent chain.

B1: human decoy-resistant IL-18 variant SEQ ID NO: 34 (ligand)
chain: YFGKLESKLSVIRNLNDQVLFIDQGNRPLFEDMTDSDCRDNAPRTIFIISTYKDSQPRGKAVTISVKCEKISTLSCENKIISFKEMNPPDNIKDTKSDIIFFQRDVPGHKHKMQFESSSYEGYFLACEKERDLFKLILKKEDELGDRSIMFTVQNED
notes: Engineered variant of mature human IL-18; tag and display linker not in chains; also called hCS1; hCS-1
B2: human decoy-resistant IL-18 variant SEQ ID NO: 36 (ligand)
chain: B1 chain with Y1R
notes: Engineered variant of mature human IL-18; tag and display linker not in chains; also called hCS3
B3: human decoy-resistant IL-18 variant SEQ ID NO: 37 (ligand)
chain: B1 chain with Y1R, K53R, D105N, H111Y
notes: Engineered variant of mature human IL-18; tag and display linker not in chains; also called hCS4
B4: human decoy-resistant IL-18 variant SEQ ID NO: 39 (ligand)
chain: B1 chain with K8R, T51K, S55K, G59A, K60Q, V153I
notes: Engineered variant of mature human IL-18; display linker not in chains; also called hA8
B5: human decoy-resistant IL-18 variant SEQ ID NO: 52 (ligand)
chain: B1 chain with Y1R, K8R
notes: Engineered variant of mature human IL-18; display linker not in chains; also called hH3
B6: human decoy-resistant IL-18 variant SEQ ID NO: 57 (ligand)
chain: B1 chain with Y1R, L5H, K53R, Q103E, D105N, H111Y
notes: Engineered variant of mature human IL-18; display linker not in chains; also called hB9
B7: murine decoy-resistant IL-18 variant SEQ ID NO: 64 (ligand)
chain: NFGRLHCTTAVIRNINDQVLFVDKRQPVFEDMTDIDQSASEPQTRLIIYVYTDGRRRGKAVTLSVKDSKMSTLSCKNKIISFEEMDPPENIDDIQSDLIFFQKKVPGHDKMEFESSLYEGHFLACQKEDDAFKLILKKKDENGDKSVMFTLTNLHQS
notes: Engineered variant of mature mouse IL-18; tag and display linker not in chains; also called mE8; E8

Experiments:
[1] = molecular target: T1, human IL-18Rα ectodomain (amino acids 19-329), biotinylated (human, UniProt Q13478 19-329, biotin on the AviTag (BirA ligase)); test: on-yeast binding isotherm, flow cytometry; exponent missing in the cell, derived from c3/c4
T1 construct: range 19-329; Secreted from insect cells with gp67 signal peptide (cleaved); also called hIL-18Rα; IL-18R1
T1 sequence: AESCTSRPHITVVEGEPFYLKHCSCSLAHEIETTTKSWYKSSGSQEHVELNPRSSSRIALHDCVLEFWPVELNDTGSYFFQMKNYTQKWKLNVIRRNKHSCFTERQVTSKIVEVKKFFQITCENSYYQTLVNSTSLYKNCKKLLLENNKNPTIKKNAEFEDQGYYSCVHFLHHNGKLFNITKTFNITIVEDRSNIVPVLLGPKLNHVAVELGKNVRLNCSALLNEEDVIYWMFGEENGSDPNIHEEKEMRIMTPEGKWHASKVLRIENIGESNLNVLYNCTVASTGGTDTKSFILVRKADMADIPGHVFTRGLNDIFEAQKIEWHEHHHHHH

[2] = molecular target: T1, human IL-18Rα ectodomain (amino acids …); test: on-yeast binding isotherm, flow cytometry; exponent missing in the cell, derived from 20 µM/c4
[3] = molecular target: T2, mouse IL-18BP (amino acids 31-194), biotinylated (mouse, UniProt Q9Z0M9 29-193, biotin on the AviTag (BirA ligase)); test: yeast binding isotherms and SPR
T2 construct: Secreted from Expi293 cells with H7 signal peptide (cleaved); The printed residue range is the same as for the human protein and may not fit the mouse entry; also called mIL-18BP
T2 sequence: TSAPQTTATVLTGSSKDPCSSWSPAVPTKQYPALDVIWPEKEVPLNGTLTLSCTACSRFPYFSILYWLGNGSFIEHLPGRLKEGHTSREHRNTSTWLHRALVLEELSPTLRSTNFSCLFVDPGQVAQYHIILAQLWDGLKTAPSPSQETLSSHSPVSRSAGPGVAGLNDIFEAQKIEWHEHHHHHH

Binder | Kd [2] [nM] | further results
B1 |  | Kd [1]: 64.4 nM
B2 |  | Kd [1]: 113 nM
B3 | 160 | 
B4 | 57.7 | 
B5 | 83.8 | 
B6 | 127 | 
B7 |  | Kd [3]: > 1000 nM
